Assay results as given in US20030108992A1.

Key:
Details in all cases: remark: other sources report otherwise
[1] = biological target: T1, p60 TNFR (endogenous), P19438; assay: DTSSP crosslinking of H9 cells with or without TNFα, non-reducing Western blot
T1 chain: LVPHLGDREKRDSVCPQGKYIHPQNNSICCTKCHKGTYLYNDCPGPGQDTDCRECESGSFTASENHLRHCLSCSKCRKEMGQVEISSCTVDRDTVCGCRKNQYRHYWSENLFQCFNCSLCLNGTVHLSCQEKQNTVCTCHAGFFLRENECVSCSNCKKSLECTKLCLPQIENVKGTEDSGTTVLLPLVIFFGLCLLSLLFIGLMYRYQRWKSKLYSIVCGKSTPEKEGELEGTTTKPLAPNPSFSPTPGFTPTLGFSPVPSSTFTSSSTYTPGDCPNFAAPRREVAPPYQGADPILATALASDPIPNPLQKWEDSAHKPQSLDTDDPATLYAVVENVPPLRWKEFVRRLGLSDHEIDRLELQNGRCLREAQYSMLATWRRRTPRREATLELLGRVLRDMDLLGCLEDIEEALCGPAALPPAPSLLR

[2] = biological target: T2, Fas with the death domain, CFP and YFP fusions (human), P25445; assay: CFP dequenching after YFP photobleaching, fluorescence microscope
T2 chain: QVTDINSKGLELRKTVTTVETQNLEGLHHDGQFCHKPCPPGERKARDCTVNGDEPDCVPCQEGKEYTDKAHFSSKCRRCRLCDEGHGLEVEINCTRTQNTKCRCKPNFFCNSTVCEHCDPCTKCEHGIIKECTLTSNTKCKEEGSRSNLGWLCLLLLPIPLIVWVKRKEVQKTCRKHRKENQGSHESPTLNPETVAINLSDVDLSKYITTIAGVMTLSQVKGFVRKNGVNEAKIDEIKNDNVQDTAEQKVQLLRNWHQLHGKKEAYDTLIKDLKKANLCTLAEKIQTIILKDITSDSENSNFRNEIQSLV

[3] = biological target: T3, Fas (endogenous, native receptor on T lymphoma cells), P25445; assay: DTSSP crosslinking of H9 lymphoma cells, anti-Fas Western blot of deglycosylated lysates
T3 chain: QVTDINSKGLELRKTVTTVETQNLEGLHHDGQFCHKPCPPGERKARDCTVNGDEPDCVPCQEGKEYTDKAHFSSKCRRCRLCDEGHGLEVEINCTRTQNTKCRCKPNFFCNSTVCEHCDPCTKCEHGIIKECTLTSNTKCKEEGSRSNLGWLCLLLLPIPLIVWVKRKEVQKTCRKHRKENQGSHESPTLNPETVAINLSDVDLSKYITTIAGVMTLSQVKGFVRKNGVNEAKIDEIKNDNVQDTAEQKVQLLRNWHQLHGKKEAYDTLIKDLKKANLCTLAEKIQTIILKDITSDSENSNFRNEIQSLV

B1: p60 TNFR (endogenous), P19438 30-455 (receptor, UniProt P19438 30-455, looked up)
chain: LVPHLGDREKRDSVCPQGKYIHPQNNSICCTKCHKGTYLYNDCPGPGQDTDCRECESGSFTASENHLRHCLSCSKCRKEMGQVEISSCTVDRDTVCGCRKNQYRHYWSENLFQCFNCSLCLNGTVHLSCQEKQNTVCTCHAGFFLRENECVSCSNCKKSLECTKLCLPQIENVKGTEDSGTTVLLPLVIFFGLCLLSLLFIGLMYRYQRWKSKLYSIVCGKSTPEKEGELEGTTTKPLAPNPSFSPTPGFTPTLGFSPVPSSTFTSSSTYTPGDCPNFAAPRREVAPPYQGADPILATALASDPIPNPLQKWEDSAHKPQSLDTDDPATLYAVVENVPPLRWKEFVRRLGLSDHEIDRLELQNGRCLREAQYSMLATWRRRTPRREATLELLGRVLRDMDLLGCLEDIEEALCGPAALPPAPSLLR
percent of chains cross-linked as apparent trimers and higher order complexes [1]: 15 to 20%

B2: Fas with the death domain, CFP and YFP fusions, P25445 26-335 (receptor, human, UniProt P25445 26-335, looked up, not shown: large carriers)
chain: QVTDINSKGLELRKTVTTVETQNLEGLHHDGQFCHKPCPPGERKARDCTVNGDEPDCVPCQEGKEYTDKAHFSSKCRRCRLCDEGHGLEVEINCTRTQNTKCRCKPNFFCNSTVCEHCDPCTKCEHGIIKECTLTSNTKCKEEGSRSNLGWLCLLLLPIPLIVWVKRKEVQKTCRKHRKENQGSHESPTLNPETVAINLSDVDLSKYITTIAGVMTLSQVKGFVRKNGVNEAKIDEIKNDNVQDTAEQKVQLLRNWHQLHGKKEAYDTLIKDLKKANLCTLAEKIQTIILKDITSDSENSNFRNEIQSLV
FRET efficiency [2]: 27%

B3: Fas (endogenous, native receptor on T lymphoma cells), P25445 26-335 (receptor, UniProt P25445 26-335, looked up)
chain: QVTDINSKGLELRKTVTTVETQNLEGLHHDGQFCHKPCPPGERKARDCTVNGDEPDCVPCQEGKEYTDKAHFSSKCRRCRLCDEGHGLEVEINCTRTQNTKCRCKPNFFCNSTVCEHCDPCTKCEHGIIKECTLTSNTKCKEEGSRSNLGWLCLLLLPIPLIVWVKRKEVQKTCRKHRKENQGSHESPTLNPETVAINLSDVDLSKYITTIAGVMTLSQVKGFVRKNGVNEAKIDEIKNDNVQDTAEQKVQLLRNWHQLHGKKEAYDTLIKDLKKANLCTLAEKIQTIILKDITSDSENSNFRNEIQSLV
percent of chains cross-linked as trimers (densitometry) [3]: 60%
